Measurements as given in publication PMC5923319 (Toxins, 2018).

B1: GST-fused recombinant human SV2C-L4 (domain or fragment, UniProt Q496J9 454-580, looked up)
chain: FPDVIKPLQSDEYALLTRNVERDKYANFTINFTMENQIHTGMEYDNGRFIGVKFKSVTFKDSVFKSCTFEDVTSVNTYFKNCTFIDTVFDNTDFEPYKFIDSEFKNCSFFHNKTGCQITFDDDYSAY
notes: also called non-glycosylated SV2C
B2: GST-fused recombinant human SV2A-L4 (domain or fragment, UniProt Q7L0J3 468-596, looked up)
chain: FPDMIRHLQAVDYASRTKVFPGERVEHVTFNFTLENQIHRGGQYFNDKFIGLRLKSVSFEDSLFEECYFEDVTSSNTFFRNCTFINTVFYNTDLFEYKFVNSRLINSTFLHNKEGCPLDVTGTGEGAYM
notes: also called non-glycosylated SV2A
B3: GST-fused recombinant human SV2B-L4 (domain or fragment, UniProt Q7L1I2 410-536, looked up)
chain: WFPDMIRYFQDEEYKSKMKVFFGEHVYGATINFTMENQIHQHGKLVNDKFTRMYFKHVLFEDTFFDECYFEDVTSTDTYFKNCTIESTIFYNTDLYEHKFINCRFINSTFLEQKEGCHMDLEQDNDF
notes: also called non-glycosylated SV2B

Tests used:
[1] = target: HcA1 (receptor binding domain of BoNT/A1), HA- and His6-tagged, for binding studies (Clostridium botulinum, UniProt A2I2U2 876-1296); assay: pull-down; details: both partners purified
[2] = target: HcA2 (receptor binding domain of BoNT/A2), HA- and His6-tagged, for binding studies (Clostridium botulinum A2 Kyoto-F, UniProt Q45894 874-1296); assay: […]; Hepes buffer (50 mM Hepes pH 7.5, 150 mM NaCl); […]; details: both partners purified

Binder	binding result [1]	binding result [2]
B1	binds	binds
B2	binds	–
B3	binds	–
